Key:
[1] = molecular target: T1, 重组人GP73蛋白 His-GP73 (recombinant human Golgi protein 73 fragment with His tag, expressed in E. coli from pET-28-a(+)) (human) (UniProt Q8NBJ4); assay: double antibody sandwich ELISA: 6A2 (1 μg/ml) capture, His-GP73 standard, rabbit anti-GP73 serum (1:1000) detection
T1 sequence (looked up): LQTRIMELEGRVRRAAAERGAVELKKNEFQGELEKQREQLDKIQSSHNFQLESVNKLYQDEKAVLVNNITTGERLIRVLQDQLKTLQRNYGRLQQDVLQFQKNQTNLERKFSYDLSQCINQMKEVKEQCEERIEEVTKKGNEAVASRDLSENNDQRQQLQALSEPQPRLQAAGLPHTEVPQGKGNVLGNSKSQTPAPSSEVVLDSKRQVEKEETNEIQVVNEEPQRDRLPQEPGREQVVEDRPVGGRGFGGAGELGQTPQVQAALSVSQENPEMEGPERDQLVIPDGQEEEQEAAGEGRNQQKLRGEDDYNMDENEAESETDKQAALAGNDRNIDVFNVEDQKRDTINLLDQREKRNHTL

[2] = molecular target: T2, GP73 in human prostatic hyperplasia tissue sections (前列腺增生组织石蜡切片中的GP73) (human) (UniProt Q8NBJ4); assay: immunohistochemistry on paraffin sections
T2 sequence (looked up): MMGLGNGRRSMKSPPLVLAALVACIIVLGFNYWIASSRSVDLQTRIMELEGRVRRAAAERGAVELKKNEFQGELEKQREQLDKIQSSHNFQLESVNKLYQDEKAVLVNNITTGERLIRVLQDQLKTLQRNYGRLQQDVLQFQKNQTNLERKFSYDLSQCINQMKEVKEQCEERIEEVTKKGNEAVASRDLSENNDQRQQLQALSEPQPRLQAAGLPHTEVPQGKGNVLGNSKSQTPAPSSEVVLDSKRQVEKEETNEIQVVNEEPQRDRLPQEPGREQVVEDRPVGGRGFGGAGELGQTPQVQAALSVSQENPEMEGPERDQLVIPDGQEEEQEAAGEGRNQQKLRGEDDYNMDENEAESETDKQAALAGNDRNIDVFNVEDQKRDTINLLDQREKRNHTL

B1: 抗GP73单克隆抗体6A2 (anti-GP73 mAb) (antibody, part only; not given: light chain variable region, V domains shown, part only)
VH: DFNIKDTYMHWMKQRPEQGLEWIGRIDPANGNTKYDPKFQGKATITTDTSSNTAYLQLSSLTSEDTAVYYCAREDYGNLWYFDV
- 最低检测限 (lowest detection limit of the sandwich ELISA) [1]: 0.25 ng/mL
- 效价 (titer in immunohistochemistry) (titer (1:x dilution)) [2]: 1000

— patent CN101407544A
